Drawing on patent US20140011732A1 (Novo Nordisk, published 2014), this text covers EC50 for 1 molecule.

Starred links: 1 amine or outer side, 2 acyl side, 3 side chain; linkers in the order of their positions; H or OH if unused. Non-standard residues stand in square brackets, D forms with d. Groups on a side chain read outwards from the residue. *: point of attachment. C20 diacid = O=C(O)CCCCCCCCCCCCCCCCCCC(=O)*; γGlu = O=C(O)[C@H](CCC(=O)[*:2])N[*:1]; Desaminohistidyl = O=C(CCc1c[nH]cn1)*; AEEA = NCCOCCOCC(=O)O; Inp = O=C(O)C1CCNCC1

The experiment addresses T1, human serum albumin (HSA) (human, UniProt P02768 25-609, biotinylated).
T1 construct: also called biotinylated HSA
The experiment in a line: competition SPA on biotinylated HSA, 125I acylated GLP-1 tracer.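 Also: streptavidin SPA beads carrying biotinylated HSA, competition incubated 20 h at room temperature, plates then read on a TopCount counter.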

Description: Streptavidin-SPA beads (GE Healthcare RPNQ0009) were incubated with biotinylated HSA for 5 hours. The beads were washed with buffer to remove unbound HSA. […] After 20 hours of gentle rocking at room temperature the plates were centrifuged and counted on a TopCounter.

B1: [DesaminoHis7,Glu22,Arg26,Arg34]GLP-1-(7-37)Lys[2-(2-[2-(2-[2-(2-((S)-4-[1-[19-Carboxynonadecanoyl]piperidine-4-carbonylamino]-4-carboxybutyrylamino)ethoxy)etho … (peptide)
peptide: [Desaminohistidyl]AEGTFTSDVSSYLEEQAAREFIAWLVRGRGK([AEEA-AEEA-γGlu-Inp-C20 diacid])-NH2
SMILES: CC[C@H](C)[C@H](NC(=O)[C@H](Cc1ccccc1)NC(=O)[C@H](CCC(=O)O)NC(=O)[C@H](CCCNC(=N)N)NC(=O)[C@H](C)NC(=O)[C@H](C)NC(=O)[C@H](CCC(N)=O)NC(=O)[C@H](CCC(=O)O)NC(=O)[C@H](CCC(=O)O)NC(=O)[C@H](CC(C)C)NC(=O)[C@H](Cc1ccc(O)cc1)NC(=O)[C@H](CO)NC(=O)[C@H](CO)NC(=O)[C@@H](NC(=O)[C@H](CC(=O)O)NC(=O)[C@H](CO)NC(=O)[C@@H](NC(=O)[C@H](Cc1ccccc1)NC(=O)[C@@H](NC(=O)CNC(=O)[C@H](CCC(=O)O)NC(=O)[C@H](C)NC(=O)CCc1c[nH]cn1)[C@@H](C)O)[C@@H](C)O)C(C)C)C(=O)N[C@@H](C)C(=O)N[C@@H](Cc1c[nH]c2ccccc12)C(=O)N[C@@H](CC(C)C)C(=O)N[C@H](C(=O)N[C@@H](CCCNC(=N)N)C(=O)NCC(=O)N[C@@H](CCCNC(=N)N)C(=O)NCC(=O)N[C@@H](CCCCNC(=O)COCCOCCNC(=O)COCCOCCNC(=O)CC[C@H](NC(=O)C1CCN(C(=O)CCCCCCCCCCCCCCCCCCC(=O)O)CC1)C(=O)O)C(N)=O)C(C)C
With B1, the EC50 (usually the concentration giving half of the maximal effect) was in the range of 300 to 800 nM.
